Measured values reported in PMC9728385.

Target: TtCST WT (Ctc1-Stn1-Ten1, co-expressed with p50) (Tetrahymena, UniProt A0PGB2;Q6JXI5;D2CVN7;D2CVN8 1-622;1-373;1-164;1-422)
Test: EMSA

TtCST WT (Ctc1-Stn1-Ten1, co-expressed with p50), sequence (A0PGB2 whole entry, chain 1 of 4): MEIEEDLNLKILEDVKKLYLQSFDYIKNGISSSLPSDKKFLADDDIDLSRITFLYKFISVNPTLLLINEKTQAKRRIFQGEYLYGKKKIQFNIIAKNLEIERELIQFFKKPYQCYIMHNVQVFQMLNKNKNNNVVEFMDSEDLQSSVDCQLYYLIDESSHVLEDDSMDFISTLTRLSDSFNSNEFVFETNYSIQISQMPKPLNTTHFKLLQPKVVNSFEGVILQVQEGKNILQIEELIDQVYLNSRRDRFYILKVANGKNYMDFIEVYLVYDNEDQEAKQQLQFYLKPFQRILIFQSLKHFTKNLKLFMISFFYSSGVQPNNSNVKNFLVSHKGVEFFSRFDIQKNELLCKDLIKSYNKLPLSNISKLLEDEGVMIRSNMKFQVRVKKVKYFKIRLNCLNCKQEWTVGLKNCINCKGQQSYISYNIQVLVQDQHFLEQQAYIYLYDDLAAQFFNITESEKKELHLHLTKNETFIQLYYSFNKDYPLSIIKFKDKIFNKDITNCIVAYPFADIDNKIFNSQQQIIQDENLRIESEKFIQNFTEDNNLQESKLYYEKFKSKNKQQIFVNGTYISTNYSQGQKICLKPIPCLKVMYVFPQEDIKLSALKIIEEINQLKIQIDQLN
TtCST WT (Ctc1-Stn1-Ten1, co-expressed with p50), sequence (Q6JXI5 whole entry, chain 2 of 4): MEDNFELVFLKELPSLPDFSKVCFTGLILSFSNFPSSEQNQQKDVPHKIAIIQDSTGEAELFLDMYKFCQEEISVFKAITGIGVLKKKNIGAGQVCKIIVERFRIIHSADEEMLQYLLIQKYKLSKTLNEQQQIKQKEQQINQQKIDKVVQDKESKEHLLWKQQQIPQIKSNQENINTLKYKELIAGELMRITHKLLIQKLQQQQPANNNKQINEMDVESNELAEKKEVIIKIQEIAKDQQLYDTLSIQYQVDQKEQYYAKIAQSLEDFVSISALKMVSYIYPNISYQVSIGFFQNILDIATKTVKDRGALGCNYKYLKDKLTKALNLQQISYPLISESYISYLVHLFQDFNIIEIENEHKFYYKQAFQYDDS
TtCST WT (Ctc1-Stn1-Ten1, co-expressed with p50), sequence (D2CVN7 whole entry, chain 3 of 4): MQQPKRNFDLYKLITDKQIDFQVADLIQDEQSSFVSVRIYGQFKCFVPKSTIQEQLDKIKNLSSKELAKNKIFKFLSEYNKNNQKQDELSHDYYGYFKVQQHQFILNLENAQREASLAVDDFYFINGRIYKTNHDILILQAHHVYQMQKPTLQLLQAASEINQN
TtCST WT (Ctc1-Stn1-Ten1, co-expressed with p50), sequence (D2CVN8 whole entry, chain 4 of 4): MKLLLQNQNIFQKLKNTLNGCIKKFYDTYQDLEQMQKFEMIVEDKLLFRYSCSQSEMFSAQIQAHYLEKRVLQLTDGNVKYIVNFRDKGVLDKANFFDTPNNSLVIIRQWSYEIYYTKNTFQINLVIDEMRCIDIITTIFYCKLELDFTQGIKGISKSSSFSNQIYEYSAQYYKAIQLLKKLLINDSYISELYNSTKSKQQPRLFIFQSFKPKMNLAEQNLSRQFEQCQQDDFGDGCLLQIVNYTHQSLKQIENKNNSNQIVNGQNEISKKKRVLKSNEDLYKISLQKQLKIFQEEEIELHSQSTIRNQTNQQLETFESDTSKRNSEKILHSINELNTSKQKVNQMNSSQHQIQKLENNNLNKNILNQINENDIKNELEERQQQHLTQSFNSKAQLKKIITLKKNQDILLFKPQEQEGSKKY

Binder: GTTGGGGTTGGGGTTGGGGTTGGGGTTGGG (ssDNA) [d(GTTGGG)5]
- Kd: 180 nM
